Results taken from patent publication US20250026846A1 (JCR PHARMACEUTICALS, published 2025).
Where two headings read alike, the source gives them in different places. Values belong to the binder of their own block, whether it stands above or below them.

B1: recombinant monkey TfR (r monkey TfR: Sino Biological Inc.), crab-eating monkey TfR extracellular region with a histidine tag at the N-terminus (receptor)
chain: CKGVEPKTECERLAGTESPAREEPEEDFPAAPRLYWDDLKRKLSEKLDTTDFTSTIKLLNENLYVPREAGSQKDENLALYIENQFREFKLSKVWRDQHFVKIQVKDSAQNSVIIVDKNGGLVYLVENPGGYVAYSKAATVTGKLVHANFGTKKDFEDLDSPVNGSIVIVRAGKITFAEKVANAESLNAIGVLIYMDQTKFPIVKADLSFFGHAHLGTGDPYTPGFPSFNHTQFPPSQSSGLPNIPVQTISRAAAEKLFGNMEGDCPSDWKTDSTCKMVTSENKSVKLTVSNVLKETKILNIFGVIKGFVEPDHYVVVGAQRDAWGPGAAKSSVGTALLLKLAQMFSDMVLKDGFQPSRSIIFASWSAGDFGSVGATEWLEGYLSSLHLKAFTYINLDKAVLGTSNFKVSASPLLYTLIEKTMQDVKHPVTGRSLYQDSNWASKVEKLTLDNAAFPFLAYSGIPAVSFCFCEDTDYPYLGTTMDTYKELVERIPELNKVARAAAEVAGQFVIKLTHDTELNLDYERYNSQLLLFLRDLNQYRADVKEMGLSLQWLYSARGDFFRATSRLTTDFRNAEKRDKFVMKKLNDRVMRVEYYFLSPYVSPKESPFRHVFWGSGSHTLSALLESLKLRRQNNSAFNETLFRNQLALATWTIQGAANALSGDVWDIDNEF
notes: Bought from Sino Biological; also called r monkey TfR-ECD (Histag); not shown: histidine tag at the N-terminus

Experiments:
[1] = molecular target: T1, Fab GS-GAA (fusion protein between Fab anti-hTfR antibody 3N and hGAA); assay: BLI (Octet RED96), His-tagged TfR ECD on Ni-NTA sensor; Table 21, Fab-GS3-GAA
T1 construct: also called Fab GS3-GAA; Fab-GS3-GAA
T1 sequence (heavy, as listed by the source, chain 2 of 2, one chain of several): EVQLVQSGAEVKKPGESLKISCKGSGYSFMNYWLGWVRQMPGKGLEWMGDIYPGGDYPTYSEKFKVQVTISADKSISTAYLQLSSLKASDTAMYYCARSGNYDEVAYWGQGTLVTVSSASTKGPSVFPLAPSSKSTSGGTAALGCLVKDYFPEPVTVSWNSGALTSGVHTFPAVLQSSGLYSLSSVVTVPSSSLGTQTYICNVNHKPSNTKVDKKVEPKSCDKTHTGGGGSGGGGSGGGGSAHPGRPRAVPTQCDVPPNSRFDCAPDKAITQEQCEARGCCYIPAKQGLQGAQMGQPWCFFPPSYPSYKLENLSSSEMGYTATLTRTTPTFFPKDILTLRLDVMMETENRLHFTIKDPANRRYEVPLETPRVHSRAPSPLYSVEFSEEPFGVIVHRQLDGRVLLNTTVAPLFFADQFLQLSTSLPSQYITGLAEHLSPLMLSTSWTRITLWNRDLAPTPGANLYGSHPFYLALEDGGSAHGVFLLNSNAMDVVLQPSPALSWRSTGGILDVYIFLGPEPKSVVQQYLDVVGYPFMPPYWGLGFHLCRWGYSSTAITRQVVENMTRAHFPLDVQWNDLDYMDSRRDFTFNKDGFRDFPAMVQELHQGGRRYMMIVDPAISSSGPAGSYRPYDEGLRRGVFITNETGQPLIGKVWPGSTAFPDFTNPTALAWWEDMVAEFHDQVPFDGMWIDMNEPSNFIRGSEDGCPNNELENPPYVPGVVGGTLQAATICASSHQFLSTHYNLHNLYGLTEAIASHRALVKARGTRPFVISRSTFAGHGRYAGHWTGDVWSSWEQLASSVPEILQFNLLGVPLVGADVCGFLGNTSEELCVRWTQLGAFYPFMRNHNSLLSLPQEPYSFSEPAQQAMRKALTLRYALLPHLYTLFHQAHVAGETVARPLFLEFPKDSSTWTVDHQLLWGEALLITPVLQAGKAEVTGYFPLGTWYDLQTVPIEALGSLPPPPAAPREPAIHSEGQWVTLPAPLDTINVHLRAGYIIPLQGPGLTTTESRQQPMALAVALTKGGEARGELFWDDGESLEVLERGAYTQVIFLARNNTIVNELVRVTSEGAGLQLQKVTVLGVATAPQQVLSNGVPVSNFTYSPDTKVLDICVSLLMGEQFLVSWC

[2] = molecular target: hGAA-anti-hTfR antibody 3N (IgG4); assay: BLI (Octet RED96), His-tagged TfR ECD on Ni-NTA sensor
Sequence of hGAA-anti-hTfR antibody 3N (IgG4) (heavy, as listed by the source, chain 2 of 2, one chain of several): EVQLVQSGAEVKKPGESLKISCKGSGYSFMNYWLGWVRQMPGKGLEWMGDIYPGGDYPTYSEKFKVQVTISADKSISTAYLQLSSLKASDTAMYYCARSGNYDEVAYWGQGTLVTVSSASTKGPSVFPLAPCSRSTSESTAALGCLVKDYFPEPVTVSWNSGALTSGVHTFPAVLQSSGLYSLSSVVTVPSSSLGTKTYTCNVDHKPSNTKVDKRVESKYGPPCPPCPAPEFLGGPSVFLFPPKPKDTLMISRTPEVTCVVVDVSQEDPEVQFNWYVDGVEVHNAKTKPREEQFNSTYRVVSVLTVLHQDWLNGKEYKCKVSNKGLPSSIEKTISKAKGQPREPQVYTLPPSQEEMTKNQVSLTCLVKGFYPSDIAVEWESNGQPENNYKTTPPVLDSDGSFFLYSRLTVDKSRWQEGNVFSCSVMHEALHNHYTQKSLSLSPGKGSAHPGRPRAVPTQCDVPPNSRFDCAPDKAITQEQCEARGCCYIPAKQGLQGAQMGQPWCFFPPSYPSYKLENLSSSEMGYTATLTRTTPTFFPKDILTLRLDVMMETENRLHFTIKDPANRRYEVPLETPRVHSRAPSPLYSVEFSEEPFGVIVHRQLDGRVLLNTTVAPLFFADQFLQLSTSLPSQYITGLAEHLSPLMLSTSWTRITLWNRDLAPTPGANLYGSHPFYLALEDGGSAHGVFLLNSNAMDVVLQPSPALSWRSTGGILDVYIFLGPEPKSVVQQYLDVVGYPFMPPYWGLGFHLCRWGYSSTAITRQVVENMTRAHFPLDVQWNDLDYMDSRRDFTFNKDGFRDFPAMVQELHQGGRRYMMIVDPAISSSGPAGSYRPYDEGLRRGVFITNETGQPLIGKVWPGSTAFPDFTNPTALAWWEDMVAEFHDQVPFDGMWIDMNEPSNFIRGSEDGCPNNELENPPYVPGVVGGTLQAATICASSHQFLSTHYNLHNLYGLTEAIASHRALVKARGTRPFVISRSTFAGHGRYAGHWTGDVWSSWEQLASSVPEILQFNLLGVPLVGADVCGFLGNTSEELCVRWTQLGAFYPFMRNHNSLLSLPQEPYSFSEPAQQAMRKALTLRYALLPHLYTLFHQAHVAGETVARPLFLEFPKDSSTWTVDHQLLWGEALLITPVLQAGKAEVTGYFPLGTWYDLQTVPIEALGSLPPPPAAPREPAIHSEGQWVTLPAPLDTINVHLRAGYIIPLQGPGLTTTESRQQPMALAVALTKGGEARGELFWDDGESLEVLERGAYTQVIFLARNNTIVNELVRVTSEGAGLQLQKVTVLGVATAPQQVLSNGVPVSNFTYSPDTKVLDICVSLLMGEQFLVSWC
Protocol: (§1) Each of the sample solutions prepared above by 2-fold dilution steps was added, 200 μL/well, to a 96-well plate, black (Greiner Bio-One Inc.). Each of the r human TfR-ECD (Histag) solution and the r monkey TfR-ECD (Histag) solutions prepared above was added, 200 μL/well, to predetermined wells. To respective wells for baseline, dissociation and washing were added HBS-P+, 200 μL/well. To wells for regeneration were added 10 mM Glycine-HCl (pH 1.7), 200 μL/well. To wells for activation was added 0.5 mM NiCl₂ solution, 200 μL/well. The plate and biosensor (Biosensor/Ni-NTA: ForteBio Inc., a division of Pall Corporation) were set in the prescribed positions of Octet RED96.
(§2) The measurement was performed at 25 to 30° C.
(§3) The affinity of the hGAA-anti-hTfR antibody 3N (IgG4) obtained in Example 26 to human TfR and monkey TfR was measured in accordance with the method described in Example 23.

[3] = molecular target: T1, Fab GS-GAA (fusion protein between Fab …); assay: as above
Protocol: as §1, §2, §3

[4] = molecular target: T1, Fab GS-GAA (fusion protein between Fab …); assay: BLI (Octet RED96), His-tagged TfR ECD on Ni-NTA sensor; Table 17-2, Fab GS-GAA
[5] = molecular target: T2, recombinant human TfR (r human TfR: Sino Biological Inc.), hTfR extracellular region with a histidine tag at … (human, UniProt P02786 89-760); assay: BLI (Octet RED96), His-tagged TfR ECD on Ni-NTA sensor
T2 construct: Bought from Sino Biological; also called r human TfR-ECD (Histag); recombinant hTfR; not shown: histidine tag at the N-terminus
Protocol: (§4) The purified product of anti-hTfR antibody No. 3 was subjected to 2-fold dilution steps with HBS-P+ (10 mM HEPES containing 150 mM NaCl, 50 μM EDTA and 0.05% Surfactant P20) to prepare antibody solutions of 7 different concentrations, 0.78125 to 50 nM (0.117 to 7.5 μg/mL). The antibody solution was used as the sample solution. The r human and r monkey TfRs were respectively diluted with HBS-P+ to prepare 25 μg/mL solutions, which were used as r human TfR-ECD (Histag) solution and r monkey TfR-ECD (Histag) solution, respectively.
as §1, §2

[6] = molecular target: B1; assay: as above
Protocol: as §4, §1, §2

[7] = molecular target: T2, recombinant human TfR (r human TfR: …); assay: as above; remark: listed apart in the source
Protocol: as §1, §2
(§5) The affinity of humanized anti-hTfR antibody No. 3 obtained in Example 13 and humanized anti-hTfR antibody No. 3N obtained in Example 17 to human TfR and human TfR was measured by the method described in Example 7. […] Besides, the measurement indicating the affinity of humanized anti-hTfR antibody No. 3 to human TfR differed from that shown in Table 6, but is an experimental error.

[8] = molecular target: B1; assay: as above
Protocol: as §1, §2
as §5, with “TfR and monkey TfR was” for “TfR and human TfR was”, “3 to monkey TfR differed” for “3 to human TfR differed”, “in Table 7, but is” for “in Table 6, but is”

[9] = molecular target: T2, recombinant human TfR (r human TfR: …); assay: as above; remark: listed apart in the source
Protocol: as §1, §2
(§6) The affinity of the humanized anti-hTfR antibodies obtained in Example 13 to human and monkey TfRs was measured by the method described in Example 7.

[10] = molecular target: B1; assay: as above
Protocol: as §1, §2, §6

[11] = molecular target: B1; assay: BLI (Octet RED96)

Binder: B1
Kd [1]: 30.5 nM
koff [1]: 0.0145 s⁻¹
kon [1]: 473000 M⁻¹ s⁻¹
Kd [2]: < 0.001 nM
koff [2]: < 1e-07 s⁻¹
kon [2]: 203000 M⁻¹ s⁻¹
koff [3]: 0.00501 s⁻¹
kon [3]: 329000 M⁻¹ s⁻¹
Kd [4]: 15.2 nM

B3: humanized anti-hTfR antibody No. 3 (antibody, human IgG1, kappa)
light: DIVMTQTPLSLSVTPGQPASISCRSSQSLVHSNGNTYLHWYLQKPGQSPQLLIYKVSNRFSGVPDRFSGSGSGTDFTLKISRVEAEDVGVYYCSQSTHVPWTFGQGTKVEIKRTVAAPSVFIFPPSDEQLKSGTASVVCLLNNFYPREAKVQWKVDNALQSGNSQESVTEQDSKDSTYSLSSTLTLSKADYEKHKVYACEVTHQGLSSPVTKSFNRGEC
heavy: not shown
notes: IgG1; Expressed from pE-hygr(LC3) and pE-neo(HC3) in CHO cells; also called Humanized anti-hTfR antibody 3
Kd [7]: < 0.001 nM
koff [7]: < 1e-07 s⁻¹
kon [7]: 847000 M⁻¹ s⁻¹
Kd [8]: 1.32 nM
koff [8]: 0.000806 s⁻¹
kon [8]: 609000 M⁻¹ s⁻¹
Kd [9]: < 0.001 nM
koff [9]: < 1e-07 s⁻¹
kon [9]: 1.19e+06 M⁻¹ s⁻¹
Kd [10]: 1.12 nM
koff [10]: 0.000676 s⁻¹
kon [10]: 603000 M⁻¹ s⁻¹

The remaining lines, values ahead:

Kd [5]: < 0.001 nM
koff [5]: < 1e-07 s⁻¹
kon [5]: 653000 M⁻¹ s⁻¹
Kd [6]: < 0.001 nM
koff [6]: < 1e-07 s⁻¹
kon [6]: 389000 M⁻¹ s⁻¹
B2: anti-hTfR antibody No. 3 (mouse antibody produced by hybridoma Clone 3 line) (antibody, V domains shown)
VH: EVQLQESGAELVRPGTSVKISCKASGYSFTNYWLGWVKQRPGHGLEWIGDIYPGGDYPTYSEKFKVKAILTADTSSSSVYLHLSSLTSEDSAVYFCARSGNYDEVAYWGQGTLVTVST
VL: DIVMTQTTLSLPVSLGDQASISCRSSQSLVHSNGNTYLHWYLQKPGQSPKLLIYKVSNRFSGVPDRFSGSGSGTDFTLKISRVEAEDLGVFFCSQSTHVPWTFGGGTKLEIKR
notes: Whole mouse antibody purified from hybridoma supernatant on Protein G; also called mouse anti-hTfR antibody No. 3; pre-humanized anti-hTfR antibody

KD relative to that of humanized anti-hTfR antibody No. 3 [11]: ~0.033 fold
fold affinity against humanized anti-hTfR antibody No. 3 [11]: ~30 fold
Kd [7]: < 0.001 nM
koff [7]: < 1e-07 s⁻¹
kon [7]: 784000 M⁻¹ s⁻¹
Kd [8]: 0.0507 nM
koff [8]: 1.96e-05 s⁻¹
kon [8]: 386000 M⁻¹ s⁻¹
B4: humanized anti-hTfR antibody No. 3N (antibody, human IgG1, kappa, V domains shown)
VH: EVQLVQSGAEVKKPGESLKISCKGSGYSFMNYWLGWVRQMPGKGLEWMGDIYPGGDYPTYSEKFKVQVTISADKSISTAYLQLSSLKASDTAMYYCARSGNYDEVAYWGQGTLVTVSS
VL: DIVMTQTPLSLSVTPGQPASISCRSSQSLVHSNGNTYLHWYLQKPGQSPQLLIYKVSNRFSGVPDRFSGSGSGTDFTLKISRVEAEDVGVYYCSQSTHVPWTFGQGTKVEIKR
notes: IgG1; also called Humanized anti-hTfR antibody 3N
